The source of these data is patent US20180356429A1 (Genentech, published 2018).

Test [1] concerns the target T1, Recombinant human IL-13 (R&D Systems, MN, catalog no. 213-ILB/CF) (human, UniProt P35225 33-146).
T1 construct: also called recombinant IL-13
The experiment in a line: sandwich pair screen, 100 pg/mL recombinant IL-13 against blank, binder is detection Ab 11H4; capture Ab 228B/C.

In test [2] the target is T1, Recombinant human IL-13 (R&D Systems, …). As to the kind of experiment: sandwich pair screen, 100 pg/mL recombinant IL-13 against blank, binder is detection Ab 11H4; capture Ab MILR1444A.
Test [3] has as its target T2, native IL-13 in human serum (human, UniProt P35225 33-146).
T2 construct: Endogenous IL-13 in serum of healthy volunteers and of patients with asthma, IPF or atopic dermatitis; also called serum IL-13; endogenous IL-13
As to the kind of experiment: pre-incubation of serum with excess (100 ug/mL) capture antibody for 1 h at room temperature, then IMPACT IL-13 sandwich assay.

T1 sequence (P35225 other isoform, or with tags, fused parts or gaps): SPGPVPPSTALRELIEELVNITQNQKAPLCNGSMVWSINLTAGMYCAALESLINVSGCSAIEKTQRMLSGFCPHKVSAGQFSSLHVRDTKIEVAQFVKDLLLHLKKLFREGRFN
T2 sequence (P35225 other isoform, or with tags, fused parts or gaps): as above

B1: 11H4 (anti-IL-13 mu11H4) (antibody, IgG1, V domains shown)
VH: QVTLKESGPGILQPSQTLSLTCSFSGFSLSTSDMGVGWIRQPSGKGLEWLAHIWWDDVKRYNPALKSRLTISKDTSSSQVFLKIASVDTADTATYYCARIGTNYGYDGLFDYWGQGTTLTVSS
VL: DIVLTQSPASLAVSLGQRATISCRASQSVSTSSYSYMNWYQQTPGQPPKLLIKYASNLESGIPARFSGSGSGTDFTLNIHPVEEEDTATYYCQHSWEIPYTFGGGT
notes: Murine antibody; In the IMPACT IL-13 assay it was used as full-length IgG1 labelled with digoxigenin
On to B1, for which the positive/negative ratio came to 317 in test [1] and 22800 in test [2].

B2: biotinylated lebrikizumab F(ab')2 (other)
VH: VTLRESGPALVKPTQTLTLTCTVSGFSLSAYSVNWIRQPPGKALEWLAMIWGDGKIVYNSALKSRLTISKDTSKNQVVLTMTNMDPVDTATYYCAGDGYYPYAMDNWGQGSLVTVSS
VL: DIVMTQSPDSLSVSLGERATINCRASKSVDSYGNSFMHWYQQKPGQPPKLLIYLASNLESGVPDRFSGSGSGTDFTLTISSLQAEDVAVYYCQQNNEDPRTFGGGTKVEIK
modifications: biotinylated (sites not given)
notes: F(ab')2 fragment of lebrikizumab, the capture reagent of the IMPACT IL-13 assay; also called capture antibody; first antibody
Regarding B2, in test [3], the binding result was “binds”.
